From IntAct's records for PubMed 22699936

B1: Centrosomal P4.1-associated protein (Homo sapiens), Q9HC77 (parent)
chain: MFLMPTSSELNSGQNFLTQWMTNPSRAGVILNRGFPILEADKEKRAAVDISTSFPIKGTHFSDSFSFINEEDSLLEEQKLESNNPYKPQSDKSETHTAFPCIKKGPQVAACHSAPGHQEENKNDFIPDLASEFKEGAYKDPLFKKLEQLKEVQQKKQEQLKRQQLEQLQRLMEEQEKLLTMVSGQCTLPGLSLLPDDQSQKHRSPGNTTTGERATCCFPSYVYPDPTQEETYPSNILSHEQSNFCRTAHGDFVLTSKRASPNLFSEAQYQEAPVEKNNLKEENRNHPTGESILCWEKVTEQIQEANDKNLQKHDDSSEVANIEERPIKAAIGERKQTFEDYLEEQIQLEEQELKQKQLKEAEGPLPIKAKPKQPFLKRGEGLARFTNAKSKFQKGKESKLVTNQSTSEDQPLFKMDRQQLQRKTALKNKELCADNPILKKDSKARTKSGSVTLSQKPKMLKCSNRKSLSPSGLKIQTGKKCDGQFRDQIKFENKVTSNNKENVTECPKPCDTGCTGWNKTQGKDRLPLSTGPASRLAAKSPIRETMKESESSLDVSLQKKLETWEREKEKENLELDEFLFLEQAADEISFSSNSSFVLKILERDQQICKGHRMSSTPVKAVPQKTNPADPISHCNRSEDLDHTAREKESECEVAPKQLHSLSSADELREQPCKIRKAVQKSTSENQTEWNARDDEGVPNSDSSTDSEEQLDVTIKPSTEDRERGISSREDSPQVCDDKGPFKDTRTQEDKRRDVDLDLSDKDYSSDESIMESIKHKVSEPSRSSSLSLSKMDFDDERTWTDLEENLCNHDVVLGNESTYGTPQTCYPNNEIGILDKTIKRKIAPVKRGEDLSKSRRSRSPPTSELMMKFFPSLKPKPKSDSHLGNELKLNISQDQPPGDNARSQVLREKIIELETEIEKFKAENASLAKLRIERESALEKLRKEIADFEQQKAKELARIEEFKKEEMRKLQKERKVFEKYTTAARTFPDKKEREEIQTLKQQIADLREDLKRKETKWSSTHSRLRSQIQMLVRENTDLREEIKVMERFRLDAWKRAEAIESSLEVEKKDKLANTSVRFQNSQISSGTQVEKYKKNYLPMQGNPPRRSKSAPPRDLGNLDKGQAASPREPLEPLNFPDPEYKEEEEDQDIQGEISHPDGKVEKVYKNGCRVILFPNGTRKEVSADGKTITVTFFNGDVKQVMPDQRVIYYYAAAQTTHTTYPEGLEVLHFSSGQIEKHYPDGRKEITFPDQTVKNLFPDGQEESIFPDGTIVRVQRDGNKLIEFNNGQRELHTAQFKRREYPDGTVKTVYANGHQETKYRSGRIRVKDKEGNVLMDTEL

Variants of: B1
Settings: with tnks1_human TNKS

Variant | effect of a mutation on the interaction
G1303A | disrupting interaction
D1302A | disrupting interaction
